Assay results reported in US20200199204A1.

Assays:
Experiment in all cases: cell-based or functional assay
[1] = target: HIV-1 Env of DU422.01 (HIV-1)
[2] = target: HIV-1 Env of KER2008.12 (HIV-1)
[3] = target: HIV-1 Env of RHPA.7 (HIV-1)
[4] = target: HIV-1 Env of KER2018.11 (HIV-1)
[5] = target: HIV-1 Env of Q769.d22 (HIV-1)
[6] = target: HIV-1 Env of DU172.17 (HIV-1)
[7] = target: HIV-1 Env of CAP256.PI (HIV-1)
[8] = target: HIV-1 Env of BG505.w6m (HIV-1)
[9] = target: HIV-1 Env of ZM53.12 (HIV-1)
[10] = target: HIV-1 Env of 96ZM651.02 (HIV-1)
[11] = target: HIV-1 Env of ZM233.6 (HIV-1)
[12] = target: HIV-1 Env of CAP210.E8 (HIV-1)
[13] = target: HIV-1 Env of CAAN.A2 (HIV-1)
[14] = target: HIV-1 Env of UG037.8 (HIV-1)
[15] = target: HIV-1 Env of CAP45.G3 (HIV-1)
[16] = target: HIV-1 Env of Q168.a2 (HIV-1)
[17] = target: HIV-1 Env of Q259.d2.17 (HIV-1)
[18] = target: HIV-1 Env of SC422.8 (HIV-1)
[19] = target: HIV-1 Env of CAP244.D3 (HIV-1)
[20] = target: HIV-1 Env of DU156.12 (HIV-1)
[21] = target: HIV-1 Env of REJO.67 (HIV-1)
[22] = target: HIV-1 Env of 3016.V5.c36 (HIV-1)
[23] = target: HIV-1 Env of CM244.ec1 (HIV-1)
[24] = target: HIV-1 Env of CNE3 (HIV-1)
[25] = target: HIV-1 Env of Q842.d12 (HIV-1)
[26] = target: HIV-1 Env of C1080.c3 (HIV-1)
[27] = target: HIV-1 Env of ZM249.1 (HIV-1)
[28] = target: HIV-1 Env of 6405.v4.c34 (HIV-1)
[29] = target: HIV-1 Env of WITO.33 (HIV-1)
[30] = target: HIV-1 Env of ZM135.10a (HIV-1)
[31] = target: HIV-1 Env of TRJO.58 (HIV-1)
[32] = target: HIV-1 Env of TRO.11 (HIV-1)
[33] = target: HIV-1 Env of Q461.e2 (HIV-1)
[34] = target: HIV-1 Env of 0260.v5.c36 (HIV-1)
[35] = target: HIV-1 Env of MB539.2B7 (HIV-1)
[36] = target: HIV-1 Env of 6535.3 (HIV-1)
[37] = target: HIV-1 Env of CAP256.SU (HIV-1)
[38] = target: HIV-1 Env of TH976.17 (HIV-1)
[39] = target: HIV-1 Env of PVO.04 (HIV-1)
[40] = target: HIV-1 Env of THRO.18 (HIV-1)
[41] = target: HIV-1 Env of RW020.2 (HIV-1)
[42] = target: HIV-1 Env of ZM197.7 (HIV-1)
[43] = target: HIV-1 Env of AC10.29 (HIV-1)
[44] = target: HIV-1 Env of ZM109.4 (HIV-1)
[45] = target: HIV-1 Env of Q23.17 (HIV-1)
[46] = target: HIV-1 Env of ZM214.15 (HIV-1)
[47] = target: HIV-1 Env of MB201 (HIV-1)
[48] = target: HIV-1 Env of QH0692.42 (HIV-1)

Measured: IC50 (neutralization, TZM-bl)

CAP256-VRC26.30 (antibody)
0.107 µg/mL: [17]
0.4 µg/mL: [1]
0.199 µg/mL: [16]
12.6 µg/mL: [39]
0.848 µg/mL: [20]
0.762 µg/mL: [27]
1.05 µg/mL: [22]
< 0.0006 µg/mL: [4] | [9] | [12] | [37]
0.317 µg/mL: [15]
0.073 µg/mL: [26]
9.04 µg/mL: [8]
0.188 µg/mL: [11]
37.8 µg/mL: [10]
1 µg/mL: [42]
> 50 µg/mL: all other assays above

CAP256-VRC26.31 (antibody)
4.16 µg/mL: [16]
0.003 µg/mL: [12]
3.22 µg/mL: [42]
0.74 µg/mL: [11]
< 0.0006 µg/mL: [9] | [37]
1.66 µg/mL: [1]
1.67 µg/mL: [26]
0.002 µg/mL: [4]
0.262 µg/mL: [17]
4.46 µg/mL: [20]
> 50 µg/mL: all other assays above
